{"source": "the DeepSol protein solubility set", "data": [{"test": "soluble on expression in E. coli; label from the status in PepcDB or PDB records", "values": [{"sequence": "MLRSQAKNVDLTSQADSRHQQKRKQAEQLDALKNPSEPAAKKQHSKGLTELRAHISGFKIDSAKRDPLGKSRTSRRDVENLPPQKSRYVDPCPHYDYDLEEAGNPDSISDYAQGIFDYYRHREVHFRVRKYLHKHPEVDVKTRAILIDWMVEIQETFELNHETLYNAVKLTDMYLCKTKNVDKNTIQKLACVAIFIAAKYDERSPPLVDDLIYLSGDRFSRDELLAMERELFATVGYDLGSPLSYRYLRRFGRVCRVDMKTLTMGRFILETSLMVYEYAMVSQSRLAAAAFVLAMRMLDKNNEYEWNPVLEKYSGFTGEEVMPLVEHMNHILHFSKDKWAQLTSVRQKYSHEVFFHVASIPMLPDTLKVVDSHTYAPVPMLSYP", "soluble on expression in E. coli": "not soluble"}, {"sequence": "MKCTECSHEAGVSSFRYLYNARIDAPITLRQCPQCQAWLAVDEMAGEARQRVDAGEAPWGKSAGIEGLAEDAR", "soluble on expression in E. coli": "not soluble"}, {"sequence": "MSLADAPDNLLGAYLRDRREKLDPAALGLPSTRRRTPGLRREEVAQRAHVSTAWYTWMEQGRGGAPSADVLDRLARALLLDDAEREHLFLLGVGHPPEVRYHASGGVTPRLQHVLDAMDASPAIVRTATWDVVAWNAAAAATLTDYATLPPAARNILRLIFVDPRVRDAQPNWDRVARFAVGAFRADIARGGATQAVQAFIDEMRATSAEFDALWRDHDIRSHDEGTKEIRHPHAGRITLEYSAFAVIGRADLSLVIFTPTTAADRASIRSLVAAREQARAAQAPAMEGHHHHHH", "soluble on expression in E. coli": "soluble"}, {"sequence": "MGSDKIHHHHHHMELEEIVDSERNIHKTIEVLGKGGQGIVYRCLDKDVAIKVVLRDGDFIKDKESLKQYEKSVLNLSFKPIESHFPMSIPLVTLKEKQGYVMKMAEGYEPLKTFLKKPSILENEEKDGIFRINNAIQELCKDNHYMTLSLSYYSQTQGLRSRLKILTHLAKLLFRLQSKGLVYGDLNLNNVFYKDNSAFLIDADNVRYESEKALCVIFTPNYGALEISQTSKNSDTTNYNTMLSDTFSFAIITYELLNMVHPFDGNKADDSVENFIELPWIEDRKDDSNRSCGLLPFFLTRDLKNLLA", "soluble on expression in E. coli": "not soluble"}, {"sequence": "MSQSNHPGGKDAGSIPRVLISADRSSSGKTTISMGLMAALVSRGYKVQPFKVALDYIDPSYHTEITGRFCRNLDGYLMDEHGILDVYTHACETGGGADIAIIEGVRGLFEGFESLSDVGSTAQIAKILKCPVVFVINARSITRSAAALIGGYKNFDPDVEIAGVILNNIGGRRHAQKAKEAIEHYTGVPVLGIIPRDPSMQISMRHLGLMPALEGRRRFGDGGFENRLHGIEEIINKGIDVDRFLGIAESAKPLTALENSIFSPAVNENSQKPKIGVALDEAFNFYYRDNIDLLEIAGAEIVYFSPVNDPGLPEVDGLYIGGGYPELFAAELEANETMRKSIKEASAAGMPIYAECGGLMYLTEKISTGVPGKGTYHDASMPESTYSMVGALPGHTIMGQTRVVSYNIGTLARDCPIGKKGNSFKGHEFHHSEILEIPDDAEFAIALTRGTGIRGDRDGLIVNNTIGSYAHLHGVAYRELAGSLVEAARKFRDSRVSSLEHHHHHH", "soluble on expression in E. coli": "soluble"}, {"sequence": "MGSDKIHHHHHHMRREKKKGSDDQMADENEEYLMETRFSAEHIGLKLLEKKIITEQQFEDALRRQKSRGGGLGDVLIELGYLTEERLNQLLNAFPSVPKTIEDTGLDASFLADLVLKHSLSLREFRLADMVRRVKLPLSIVDSIVETLQREKMLEVKGGDGLARATYRFSITGIGENRAAGLLEICRYVGPAPVSLSDYREKVLTQSIQRVVVNPLTLKNALSHLVINPDLLKALGPALTSGQTIFLYGPTGNGKSSIAEAIGNVLPGTIFVPYAVYVEGELITVFDPVNHVPAPSETEDGKMDHRWLQIRRPVIMTGGELTLRTLDLEFNPISKFYIAPLQMKANNGLFIIDDFGRQQIEPKMLLNRWIVPLEKRVDFLTLHTGMKFSIPFDQLVIFATNLKPMELADEAFLRRIRYKIFIDYPSKEDFEVIFRKACEMKNVAFDPKAFQFLQDIYEKLGIQRSANHPRDLLEHIIDQSRYYGQEPELTVEGVSAAWEQNFIKNF", "soluble on expression in E. coli": "not soluble"}, {"sequence": "MRDTIPVTILSGSLGAGKTTLLNHLLTEAGDRDIAVLVNDMGTVNVDAELIAEGSELDVDDGVAELSNGCICCELQDDLETAVVRLADDRDFDALVVESSGISEPAPVARLFTTESRVAALYRVDTLVTVLDTRLFLDSFAGETPERRGSGEASADGDGDDTEADGADRPLSDLMVEQVELSNLVVLNKTDLCTDEEMDEAEELVRALQPDAETIRTTFSQVDPDRLFDRALFDQTEISDLPGWKRALAESGHGHGEGSHDHGGDSHETDAHEGDTGHGHDDHHHPEEVYGVTSFTYRRRRPFHPDRLAEVLQDLPSGVVRSKGTVWLAGSERRVVIGQAGPSIRAEAQGPWIASLPEVEQDMYRSNRPELDWHDEHGDRRTELVFIGTDYDESALRTALDDALVTDEEWTESESLTGPFPAEQGEEAVIRSP", "soluble on expression in E. coli": "not soluble"}, {"sequence": "MVATAFCDNIGFFKSPTEKRCDKDYECSGTDLCGHYVCTPLSEFRKCPEDKRCGFEYSCMSGVCRYMSDFDAERRFSNFGPDMKCKDSRVCPIGLHCSNGNCV", "soluble on expression in E. coli": "not soluble"}, {"sequence": "KQQKDGSWLMDALIPLNELKYKLGLTTIEGEESEGFQTLNGFLTWWLGRLPHAGELVDYEGWQFEVLNVKHHRIVQVKVSRETESETTTDTNDGDANP", "soluble on expression in E. coli": "not soluble"}, {"sequence": "MGSDKIHHHHHHMSEVYRQNPKVEAIILAGSVARKLEDEHSDIELHILWSMPPEDEDRKGPINYIGGTILSYHPYEEEEWSETYLTKEGIKLEISNFLTETVEKVIEDVVVQYDISYEKQCIVSSIHDGASLYGEEKVHELKDRVLAYPEDLAKRMISENLWLSNRWHNREALLKRKDWLMLYDVICEAQRNIFGVLFGLNKMYVHHPAFKWMPYNVERMIIKPENLYERMTNTLIGKPEYSIQELGVLIEELLQLVEHHAPELHIAEQQKRIQYAK", "soluble on expression in E. coli": "not soluble"}, {"sequence": "MQYHEPVWIPAHLTTGEPDSFAAFTLEERLPAILDNLANHADARTDQALQQLAVEIREGEITPLPPVILGLFDQVIKPYTGRRWTDMPFLTVELYFYARILLAFGHTATTLVDPFHPIKNTVSLQAIESLTTMTGYCDSDCDITGLLRWSMTGNTADLSQQVVTDAGQISLLVDESYVAGGLFDSGLNRIDFVFDNAGMDVLTDLLLILRISRHCSRIVAHVRPWPMFVSDVTMTDMKYLIRKLVTSSIPAAKKLGEDITQLLHQNRLIFRSSSALGLPVCFCEEEALTRETFENTELVIFKGDLNYRYFVGDRRWPHTMEKRYFFERFSQPAICLRTLKSEVLVGLPADIATRTLHLQPDWLTSGRYGIIQVFAHMAGDPNSLEHHHHHH", "soluble on expression in E. coli": "not soluble"}, {"sequence": "MHVWPVQDAKARFSEFLDACITEGPQIVSRRGAEEAVLVPIGEWRRLQAAARPSLKQLLLSDSARTEMLVPERGKARRRQVEPLR", "soluble on expression in E. coli": "soluble"}, {"sequence": "MLPKTWRENFFVLVREVKNLRATAKKISRHFFRKYEPQPGVFWFVFHLSRSHPFPFLKPLLSGDQARGAATPTPCMRTHLFHRIDPIKSEMGGLSTGYITFVWRGVHPRIGPIAAESLTDGKEEDEALSCGYII", "soluble on expression in E. coli": "not soluble"}, {"sequence": "SDEFDALRIKWATLLTGGPALDPADSDIAARTDKLAQDANDYWEDMDLSSSRTYIWYALRGNGTSDNVNAVYERLRTMALAATTVGSSLYGNADLKEDILDALDWLYVNSYNSTRSRSAYNWWHWQLGIPMSLNDIAVLLYDDISAARMATYMDTIDYFTPSIGLTGANRAWQAIVVGVRAVIVKDAVKLAAARNGLSGTGIFPYATGGDGFYADGSFVQHTTFAYTGGYGSSVLETTANLMYLLSGSTWSVSDPNQSNVWQWIYEAYRPLLYKGAMMDMVRGREISRSYAQDHAVGHGIVASIVRLAQFAPAPHAAAFKQIAKRVIQEDTFSSFYGDVSTDTIRLAKAIVDDPSIAPAAAPNLYKQYAAMDRAVLQRPGFALGLALYSTRISSYESINSENGRGWYTGAGATYLYNQDLAQYSEDYWPTVDAYRIPGTTVASGTPIASGTGTSSWTGGVSLAGQYGASGMDLSYGAYNLSARKSWFMFDDEIVALGSGISSTAGIPIETVVDNRKLNGAGDNAWTANGAALSTGLGVAQTLTGVNWVHLAGNTADGSDIGYYFPGGATLQTKREARTGTWKQINNRPATPSTAVTRNYETMWIDHGTNPSGASYGYVLLPNKTSAQVGAYAADPAIEIVVNTSGVQSVKEKTLGLVGANFWTDTTQTADLITSNKKASVMTREIADERLEASVSDPTQANNGTIAIELARSAEGYSADPGITVTQLAPTIKFTVNVNGAKGKSFHASFQLG", "soluble on expression in E. coli": "soluble"}]}]}
